Where two headings read alike, the source gives them in different places. No end group written: not given here.
Key:
[1] = target: T1, calmodulin (native vertebrate CaM) (vertebrate, UniProt P0DP23 1-149); experiment: other fluorescence titration
[2] = target: T1, calmodulin (native vertebrate CaM); experiment: other fluorescence titration; remark: listed apart in the source

Kd [1]	Kd [2]	Binder
2.4 µM	2.9 µM	AHKAATKIQASFRGHITRKKLKGEKKDDVQ (domain or fragment, also: fluorescent reporter) [BIQ, fluorescent reporter containing an IQ domain sequence derived from neuromodulin]
1130 µM	11 µM	TERAAVAIQSQFRKFQKKKAGSQS (domain or fragment, also: fluorescent reporter) [BIQPEP, fluorescent reporter containing an IQ domain sequence derived from PEP19]

— paper PMC2791412 (Biochemistry, 2009)
